Data reported in patent publication US20040077045A1 (LUDWIG INSTITUTE FOR CANCER RESEARCH, published 2004).

What was measured:
[1] = biological target: T1, HLA-DR7 (DRB1*0701), purified (human); assay: competition on purified HLA-DR (DRB1*0701); ratio to reference peptide YKL
T1 construct: mature

[2] = biological target: T2, HLA-DR4 (DRB1*0401), purified (human); assay: competition on purified HLA-DR (DRB1*0401); ratio to reference peptide HA 306-318
T2 construct: mature

HLA-DRB4, purified [3] = biological target: HLA-DRB4, purified (human); assay: competition on purified HLA-DR (DRB4); labelled peptide not named; fluorescence assay
[4] = biological target: T3, HLA-DR15 (DRB1*1501), purified (human); assay: competition on purified HLA-DR (DRB1*1501) against biotinylated A3 152-166 (10 nM, pH 4.5); fluorescence assay
T3 construct: mature

[5] = biological target: T4, HLA-DR11 (DRB1*1101), purified (human); assay: competition on purified HLA-DR (DRB1*1101) against biotinylated HA 306-318 (20 nM, pH 5); fluorescence assay
T4 construct: mature

[6] = biological target: T5, HLA-DRB5 (DRB5*0101), purified (human); assay: competition on purified HLA-DR (DRB5*0101) against biotinylated HA 306-318 (5 nM, pH 5.5); fluorescence assay
T5 construct: mature

[7] = biological target: T3, HLA-DR15 (DRB1*1501), purified; assay: competition on purified HLA-DR (DRB1*1501); ratio to reference peptide A3 152-166
[8] = biological target: T1, HLA-DR7 (DRB1*0701), purified; assay: competition on purified HLA-DR (DRB1*0701) against biotinylated YKL (10 nM, pH 5); fluorescence assay
[9] = biological target: T6, HLA-DR3 (DRB1*0301), purified (human); assay: competition on purified HLA-DR (DRB1*0301) against biotinylated MT 2-16 (100 nM, pH 4.5); fluorescence assay
T6 construct: mature

[10] = biological target: T2, HLA-DR4 (DRB1*0401), purified; assay: competition on purified HLA-DR (DRB1*0401) against biotinylated HA 306-318 (30 nM, pH 6); fluorescence assay
[11] = biological target: T7, HLA-DRB3 (DRB3*0101), purified (human); assay: competition on purified HLA-DR (DRB3*0101) against biotinylated LOL 191-210 (5 nM, pH 5.5); fluorescence assay
T7 construct: mature

[12] = biological target: T5, HLA-DRB5 (DRB5*0101), purified; assay: competition on purified HLA-DR (DRB5*0101); ratio to reference peptide HA 306-318
[13] = biological target: T8, HLA-DR13 (DRB1*1301), purified (human); assay: competition on purified HLA-DR (DRB1*1301) against biotinylated B1 21-36 (200 nM, pH 4.5); fluorescence assay
T8 construct: mature

[14] = biological target: T9, HLA-DR1 (DRB1*0101), purified (human); assay: competition on purified HLA-DR (DRB1*0101); ratio to reference peptide HA 306-318
T9 construct: mature

[15] = biological target: T9, HLA-DR1 (DRB1*0101), purified; assay: competition on purified HLA-DR (DRB1*0101) against biotinylated HA 306-318 (1 nM, pH 6); fluorescence assay
HLA-DRB4, purified [16] = biological target: HLA-DRB4, purified (human); assay: competition on purified HLA-DR (DRB4); ratio to a reference peptide that is not named
[17] = biological target: T4, HLA-DR11 (DRB1*1101), purified; assay: competition on purified HLA-DR (DRB1*1101); ratio to reference peptide HA 306-318

B1: peptide MAGE-3 267-282 (ACYEFLWGPRALVETS) (peptide)
peptide: ACYEFLWGPRALVETS
With B1 the “Ratios IC50 MAGE-3/IC50 reference” value [1] was 120, the “Ratios IC50 MAGE-3/IC50 reference” value [2] was 18 and the IC50 (HLA-DRB4, purified [3]) was 2800 nM. It also gave an IC50 [4] of 220 nM, an IC50 [5] of 150 nM and an IC50 [6] of 170 nM. For the same binder, the “Ratios IC50 MAGE-3/IC50 reference” value [7] was 15, the IC50 [8] was 1200 nM and the IC50 [9] was > 10000 nM. For the same binder, the IC50 [10] was 730 nM, the IC50 [11] was > 10000 nM and the “Ratios IC50 MAGE-3/IC50 reference” value [12] was 11. For the same binder, the IC50 [13] was > 10000 nM, the “Ratios IC50 MAGE-3/IC50 reference” value [14] was 0.2 and the IC50 [15] was 0.4 nM. For the same binder, the “Ratios IC50 MAGE-3/IC50 reference” value (HLA-DRB4, purified [16]) was 70 and the “Ratios IC50 MAGE-3/IC50 reference” value [17] was 6.
